Results from patent publication US20230174651A1 (Janssen / Centocor, published 2023).

Columns and labels:
[1] = biological target: T1, soluble CAR extracellular domain (ECD) containing scFv and CD8α hinge (UniProt P01732 138-182, biotinylated); test: BLI (OctetRed384), GC5W48-Btn (biotinylated CAR ECD) loaded on streptavidin tip, mAb in solution; first of two table rows
T1 construct: domain: CD8α hinge; also called soluble CAR ECD; CAR ECD
Method: (§1) To determine the binding affinity and kinetics of mAbs to CD8α hinge, soluble CAR extracellular domains (ECD) containing scFv and CD8α hinge was generated for Bio-layer interferometry (BLI) analysis using OctetRed384 (Sartorius). The CAR ECD was biotinylated and loaded to streptavidin sensor tip. Then mAbs were associated to the sensor and followed by disassociation in the assay buffer. Data was analyzed by Octet software (Sartorius).

[2] = biological target: T2, human CD8α on primary CD8+ T cells (human, UniProt P01732 22-235); test: flow cytometry on PBMC, 2 µg/mL mAb, positive cells among EMRA CD8 T cells, Donor 1
T2 construct: Endogenous CD8 on T cells from PBMC; also called CD8+ primary T cells; human primary CD8+ cells
T2 sequence (P01732 22-235): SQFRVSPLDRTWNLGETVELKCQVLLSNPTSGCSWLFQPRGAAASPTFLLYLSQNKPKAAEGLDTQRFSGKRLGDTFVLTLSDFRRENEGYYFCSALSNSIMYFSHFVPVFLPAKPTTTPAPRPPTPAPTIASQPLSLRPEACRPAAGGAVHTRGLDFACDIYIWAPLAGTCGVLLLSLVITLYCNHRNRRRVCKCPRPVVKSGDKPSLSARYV
Method: (§2) Frozen PBMCs were thawed and resuspended in FACS buffer (PBS+2% FBS). Cells were then incubated with Fc block for 15 min at 4 C prior to incubation with 2 μg/mL of each CD8α hinge binders at room temperature for 45 min. […] After staining, cells were washed with FACS buffer twice and resuspended in 100 μl PBS containing DAPI for acquisition. Cells were first gated on FSC/SSC, followed by live cell gating (DAPI negative cells) followed by singlet gating. CD3 T cells were identified using FSC versus CD3 dot plot. Within the CD3 T cells, CD4 and CD8 T cells were gated. Naïve, Effector, EM and CM cells were identified within the CD8 T cells using CD45RA and CD27 dot plot. Within each of the cell types, the secondary only control was used to set the gates to identify the positive stained population. The percentage of positive cells in CD8+ T cell population with binding to CD8α hinge binders were quantified and summarized in Table 13.

[3] = biological target: T2, human CD8α on primary CD8+ T cells; test: flow cytometry on PBMC, 2 µg/mL mAb, positive cells among EM CD8 T cells, Donor 1
Method: as §2

[4] = biological target: T1, soluble CAR extracellular domain (ECD) …; test: BLI (OctetRed384), GC5W48-Btn (biotinylated CAR ECD) loaded on streptavidin tip, mAb in solution; second of two table rows
Method: as §1

[5] = biological target: T3, CAR with CD8α hinge as the spacer, expressed on Jurkat CAR-T cells; test: flow cytometry (iQue) on Jurkat CAR-T cells, A647 anti-human IgG Fc detection
T3 construct: domain: CD8α hinge; also called CD8α hinge expressed on the Jurkat CAR-T cells
T3 sequence (P01732 138-182): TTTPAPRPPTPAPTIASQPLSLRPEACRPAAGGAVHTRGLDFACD
Method: mAbs were 1:3 serially diluted ranging from 100 nM to 1.7 pM and were incubated with cell mixture containing Jurkat CAR-T cells (unstained), Jurkat cells (CTV dye stained) and Sup-T1 cells (CSFE dye stained) in assay media (RPMI 1640+10% HI FBS+Pen/strep) for 1 hr at 37° C. […] Cells were then washed and analyzed by iQue screener (Intellicyt®). ForeCyt software was used for data analysis. The ratio of geomean of AF647 fluorescent signal from sample over the isotype control antibody (Signal) was used for the dose-dependent plot (FIGS. 2A-2F).

[6] = biological target: T1, soluble CAR extracellular domain (ECD) …; test: BLI (OctetRed384), biotinylated CAR ECD on streptavidin tips; the cell stands under the head 'ka (1/Ms)' but the text gives 5.58 nM as the affinity (heads shifted)
Method: as §1

[7] = biological target: T1, soluble CAR extracellular domain (ECD) …; test: BLI (OctetRed384), GC5W48-Btn loaded on streptavidin tip; row 'average'; the sheet puts this number under 'kon (1/Ms)', Table 14 of the text under 'kd (1/s)'
Method: as §1

[8] = biological target: T1, soluble CAR extracellular domain (ECD) …; test: BLI (OctetRed384), biotinylated CAR ECD on streptavidin tips; the cell stands under the head 'kd (1/s)' (heads shifted)
Method: as §1

[9] = biological target: T2, human CD8α on primary CD8+ T cells; test: flow cytometry on PBMC, 2 µg/mL mAb, positive cells among EMRA CD8 T cells, Donor 2
Method: as §2

[10] = biological target: T1, soluble CAR extracellular domain (ECD) …; test: BLI (OctetRed384), GC5W48-Btn (biotinylated CAR ECD) loaded on streptavidin tip, mAb in solution; first of two table rows; column head 'kdis (1/s)'
Method: as §1

[11] = biological target: T2, human CD8α on primary CD8+ T cells; test: flow cytometry on PBMC, 2 µg/mL mAb, positive cells among CD8+ T cells, Donor 1
Method: as §2

[12] = biological target: T2, human CD8α on primary CD8+ T cells; test: flow cytometry on PBMC, 2 µg/mL mAb, positive cells among CD8+ T cells, Donor 2
Method: as §2

[13] = biological target: T1, soluble CAR extracellular domain (ECD) …; test: BLI (OctetRed384), GC5W48-Btn (biotinylated CAR ECD) loaded on streptavidin tip, mAb in solution; second of two table rows; column head 'kdis (1/s)'
Method: as §1

[14] = biological target: T1, soluble CAR extracellular domain (ECD) …; test: BLI (OctetRed384), biotinylated CAR ECD on streptavidin tips; the cell stands under the head 'KD (M)' (heads shifted)
Method: as §1

[15] = biological target: T2, human CD8α on primary CD8+ T cells; test: flow cytometry on PBMC, 2 µg/mL mAb, positive cells among EM CD8 T cells, Donor 2
Method: as §2

[16] = biological target: T1, soluble CAR extracellular domain (ECD) …; test: BLI (OctetRed384), GC5W48-Btn loaded on streptavidin tip; row 'average'; the sheet puts this number under 'kdis (1/s)', Table 14 of the text under 'KD (M)'
Method: as §1

T1 sequence (P01732 138-182): as above

B1: CD8B612 (antibody, human IgG1, kappa)
heavy: not shown
light: DIVMTQTPLSLPVSLGDQASISCRSSQNIVHSNGNTYLEWYLQKPGQSPKLLIYRVSKRFSGVPDRFSGSGSGTDFTLKITRVEAEDLGVYYCFQGSHVPWTFGGGTKLEIKRTVAAPSVFIFPPSDEQLKSGTASVVCLLNNFYPREAKVQWKVDNALQSGNSQESVTEQDSKDSTYSLSSTLTLSKADYEKHKVYACEVTHQGLSSPVTKSFNRGEC
notes: Mouse variable regions on human IgG1 / human kappa constant regions
Kd [1]: 4.81 nM | kon [1]: 237000 M⁻¹ s⁻¹ | Binding+ in EMRA (%) [2]: 67.6% | Binding+ in EM (%) [3]: 65.1% | Kd [4]: 6.35 nM | kon [4]: 245000 M⁻¹ s⁻¹ | EC50 [5]: 2.9 nM | Kd [6]: 5.58 nM | kon [7]: 241000 M⁻¹ s⁻¹ | kon [8]: 241000 M⁻¹ s⁻¹ | Binding+ in EMRA (%) [9]: 7.67% | koff [10]: 0.00114 s⁻¹ | Binding in CD8+ cells (%) [11]: 71.6% | Binding in CD8+ cells (%) [12]: 32.9% | koff [13]: 0.00156 s⁻¹ | koff [14]: 0.00135 s⁻¹ | Binding+ in EM (%) [15]: 72.8% | koff [16]: 0.00135 s⁻¹
